B1: SMARCE1 (parent)
chain: YHNSPAYLAYINAKSRAEAALEEE
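Also: lentivirally expressed fusions sorted by FACS into six bins by GFP to DsRed ratio, PSI derived from sequencing read proportions per bin multiplied by bin number.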

In this series the parent is B1. The experiment in a line: protein stability index of a GFP-peptide fusion (GPS, HEK-293T) (PSI 1-6); higher = more stable. The following applies: c terminus: a fixed tail appended.
Consider YHNSPAYLAYINAKSRAEAALEGE, for which the protein stability index worked out at 3.34.
In the case of YHNSPAYLAYINAKSRAEAALEHE it was 2.13.
Under YHNSPAYLAYINAKSRAEAALEFE stands 2.31; under YHNSPAYLAYINAKSRAEAALETE, 3.01; under YHNSPAYLAYINAKSRAEAALECE, 2.79.
Under YHNSPAYLAYINAKSRAEAALELE stands 1.59; under YHNSPAYLAYINAKSRAEAALEPE, 2.58.
As to YHNSPAYLAYINAKSRAEAALEDE, the protein stability index worked out at 1.54.
Take YHNSPAYLAYINAKSRAEAALEKE: the protein stability index came out at 2.05.
In the case of YHNSPAYLAYINAKSRAEAALERE it was 1.82; in that of YHNSPAYLAYINAKSRAEAALEIE, 2.79.
Regarding YHNSPAYLAYINAKSRAEAALEYE, the protein stability index is 1.58.
For the variant YHNSPAYLAYINAKSRAEAALEVE, the protein stability index worked out at 2.44.
In the case of YHNSPAYLAYINAKSRAEAALEQE it was 1.59; in that of YHNSPAYLAYINAKSRAEAALESE, 1.54; in that of YHNSPAYLAYINAKSRAEAALEAE, 2.34.
Under YHNSPAYLAYINAKSRAEAALEME stands 1.52; under YHNSPAYLAYINAKSRAEAALENE, 1.57.
On to YHNSPAYLAYINAKSRAEAALEWE, for which the protein stability index came to 1.81.
With YHNSPAYLAYINAKSRIEAALEEE, the protein stability index was found to be 1.93.
As to YHNSPAYLAYINAKSRHEAALEEE, the protein stability index came to 2.22.
Under YHNSPAYLAYINAKSRSEAALEEE stands 2.06.
In the case of YHNSPAYLAYINAKSRKEAALEEE it was 1.53; in that of YHNSPAYLAYINAKSRQEAALEEE, 3.13; in that of YHNSPAYLAYINAKSRLEAALEEE, 2.04.
Under YHNSPAYLAYINAKSRREAALEEE stands 1.68; under YHNSPAYLAYINAKSRVEAALEEE, 2.19.
YHNSPAYLAYINAKSRYEAALEEE: the protein stability index stood at 2.05.
In the case of YHNSPAYLAYINAKSRNEAALEEE it was 2.67.
In the case of YHNSPAYLAYINAKSRPEAALEEE it was 2.45; in that of YHNSPAYLAYINAKSRMEAALEEE, 2.23.
Turning to YHNSPAYLAYINAKSRWEAALEEE, the protein stability index amounted to 2.17.
Under YHNSPAYLAYINAKSRTEAALEEE stands 2.02.
In the case of YHNSPAYLAYINAKSREEAALEEE it was 1.75.
Under YHNSPAYLAYINAKSRGEAALEEE stands 3.02.
As for YHNSPAYLAYINAKSRDEAALEEE, the protein stability index was 1.93.
In the case of YHNSPAYLAYINAKSRFEAALEEE it was 2.24.
Consider YHNSPAYLAYINAKSRAEAFLEEE, for which the protein stability index stood at 1.69.
In the case of YHNSPAYLAYINAKSRAEACLEEE it was 2.27; in that of YHNSPAYLAYINAKSRAEAKLEEE, 2.71.
Under YHNSPAYLAYINAKSRAEALLEEE stands 2.15.
In the case of YHNSPAYLAYINAKSRAEAQLEEE it was 1.79; in that of YHNSPAYLAYINAKSRAEATLEEE, 1.61.
Turning to YHNSPAYLAYINAKSRAEAPLEEE, the protein stability index amounted to 2.66.
Under YHNSPAYLAYINAKSRAEANLEEE stands 2.42; under YHNSPAYLAYINAKSRAEAYLEEE, 3.29; under YHNSPAYLAYINAKSRAEARLEEE, 2.89.
Under YHNSPAYLAYINAKSRAEAVLEEE stands 2.56; under YHNSPAYLAYINAKSRAEAELEEE, 2.32.
In the case of YHNSPAYLAYINAKSRAEAWLEEE it was 1.93; in that of YHNSPAYLAYINAKSRAEAMLEEE, 1.32; in that of YHNSPAYLAYINAKSRAEASLEEE, 1.84.
In the case of YHNSPAYLAYINAKSRAEAILEEE, the protein stability index came to 2.25.
Regarding YHNSPAYLAYINAKSRAEADLEEE, the protein stability index is 2.97.
Under YHNSPAYLAYINAKSRAEAHLEEE stands 2.51; under YHNSPAYLAYINAKSRAEAGLEEE, 3.01.
In the case of YHNSPAYLAYINAKSRAHAALEEE it was 2.33; in that of YHNSPAYLAYINAKSRASAALEEE, 2; in that of YHNSPAYLAYINAKSRAWAALEEE, 2.76.
Under YHNSPAYLAYINAKSRAFAALEEE stands 2.37; under YHNSPAYLAYINAKSRAAAALEEE, 2.58.
In the case of YHNSPAYLAYINAKSRAQAALEEE, the protein stability index was 1.51.
Under YHNSPAYLAYINAKSRAYAALEEE stands 2.15; under YHNSPAYLAYINAKSRARAALEEE, 1.97; under YHNSPAYLAYINAKSRAIAALEEE, 3.18.
Under YHNSPAYLAYINAKSRAPAALEEE stands 1.88.
Under YHNSPAYLAYINAKSRAGAALEEE stands 2.31; under YHNSPAYLAYINAKSRANAALEEE, 2.21.
Turning to YHNSPAYLAYINAKSRAVAALEEE, the protein stability index was 2.76.
In the case of YHNSPAYLAYINAKSRALAALEEE it was 1.61; in that of YHNSPAYLAYINAKSRAKAALEEE, 3.05.
In the case of YHNSPAYLAYINAKSRAMAALEEE it was 2.11.
Turning to YHNSPAYLAYINAKSRATAALEEE, the protein stability index worked out at 1.82.
In the case of YHNSPAYLAYINAKSRACAALEEE it was 2.46; in that of YHNSPAYLAYINAKSRADAALEEE, 2.4.
Under YHNSPAYLAYINAKSRAEKALEEE stands 2.05; under YHNSPAYLAYINAKSRAEGALEEE, 2.56.
Under YHNSPAYLAYINAKSRAETALEEE stands 2.41.
For the variant YHNSPAYLAYINAKSRAEWALEEE, the protein stability index came out at 2.48.
In the case of YHNSPAYLAYINAKSRAESALEEE it was 2.06; in that of YHNSPAYLAYINAKSRAEHALEEE, 2.02.
Under YHNSPAYLAYINAKSRAEIALEEE stands 2.05; under YHNSPAYLAYINAKSRAEFALEEE, 2.31.
In the case of YHNSPAYLAYINAKSRAEPALEEE it was 1.92; in that of YHNSPAYLAYINAKSRAEQALEEE, 2.12.
As to YHNSPAYLAYINAKSRAEMALEEE, the protein stability index was found to be 2.24.
Under YHNSPAYLAYINAKSRAEDALEEE stands 2.33; under YHNSPAYLAYINAKSRAELALEEE, 2.49.
With YHNSPAYLAYINAKSRAENALEEE, the protein stability index worked out at 2.43.
Regarding YHNSPAYLAYINAKSRAEYALEEE, the protein stability index was 2.46.
Under YHNSPAYLAYINAKSRAECALEEE stands 2.84; under YHNSPAYLAYINAKSRAERALEEE, 2.59; under YHNSPAYLAYINAKSRAEVALEEE, 2.58.
In the case of YHNSPAYLAYINAKSRAEEALEEE it was 2.69.

For the origin of these results see the supplement of paper PMC10567573.
